Values joined by “and” are separate entries in the source; they are usually repeats but may differ in a detail not shown here. Equal entries are not always repeated.
Target: T1, recombinant human IL-1β (human, UniProt P01584 117-269)
T1 construct: Only the background speaks of the mature 17 kDa form; also called hIL-1β; interleukin-1β
Test: BIAcore, captured antibody, IL-1β titrated in solution, 25 °C

Binder | Kd
murine monoclonal antibody IC8 (antibody, V domains shown, Mouse monoclonal antibody from a hybridoma; also called mIC8; donor antibody) VH: DVQLVESGGGLVKPGGSLKLSCAASGFDFSRYDMSWVRQTPEKRLEWVAYISSGGGSTYFPDTVKGRFTISRDNAKNTLYLQMNNLQSEDTAMFYCARQNKKLTWFDYWGQGTLVTVSS VL: DIQMTQSPASLSASVGETVTITCRTSGNIHNYLTWYQQNLGKSPQLLVYNAKTLADGVPSRFSGSGSGTQFSLTINSLQPEDFGNYYCQHFWSLPFTFGSGTKLEIKR | 0.3 nM

Target: T1, recombinant human IL-1β
Test: BIAcore, Fab′ captured by anti-hF(ab′)2, IL-1β titrated in solution, 25 °C
Method: Affinipure goat anti-human IgG, F(ab′)₂ fragment-specific (Jackson ImmunoResearch Code 109-005-097) was immobilised on flowcell 2 of a CM5 Sensor Chip via amine coupling chemistry to a level of 13025RU. A blocked reference surface was prepared on flowcell 1 by activation with EDC/NHS and deactivation with ethanolaomine using the same volumes as for flowcell 2. HBS-EP buffer (10 mM HEPES pH 7.4, 0.15 M NaCl, 3 mM EDTA, 0.005% Surfactant P20, Biacore AB) was used as the running buffer and assays were performed at 25° C. Anti-IL-1β antibody was passed over flowcells 1 and 2 and captured on the immobilised anti-hF(ab′)₂ surface using a flowrate of 10 μl/min. IL-1β (Strathmann) from 400-0 nM was injected over the blocked and captured anti-IL-1β antibody surface using a flowrate of 30 μl/min for 3 min. The anti-hF(ab′)₂ surface was regenerated with a 30 μl injection of 40 mM HCl followed by a 15 μl injection of 5 mM NaOH. Kinetic parameters were calculated using BIAevalutation 3.1 software.

Binder | Kd
gH3gL3 Fab′ (E. coli-produced) (Fab, V domains shown, Unpegylated Fab′ with a modified hinge, purified from E. coli periplasm; also called gIC8 Fab′; IC8gL3gH3 Fab′) VH: EVQLVESGGGLVQPGGSLRLSCAASGFDFSRYDMSWVRQAPGKRLEWVAYISSGGGSTYFPDTVKGRFTISRDNAKNTLYLQMNSLRAEDTAVYYCARQNKKLTWFDYWGQGTLVTVSS VL: DIQMTQSPSSLSASVGDRVTITCRTSGNIHNYLTWYQQKPGKAPQLLIYNAKTLADGVPSRFSGSGSGTQFTLTISSLQPEDFANYYCQHFWSLPFTFGQGTKVEIKR | 0.32 nM

Target: T1, recombinant human IL-1β
Test: BIAcore, antibody captured by anti-hFc, IL-1β titrated in solution, 25 °C
Method: The assay format used anti-IL-1β antibody captured by anti-hFc with a titration of recombinant human IL-1β in the solution phase. Mouse anti-human IgG, Fc fragment-specific (Celltech) was immobilised on flowcell 2 of a CM5 Sensor Chip via amine coupling chemistry to a level of 12757RU. A blocked reference surface was prepared on flowcell 1 by activation with EDC/NHS and deactivation with ethanolamine using the same volumes as for flowcell 2. HBS-EP buffer (10 mM HEPES pH 7.4, 0.15 M NaCl, 3 mM EDTA, 0.005% Surfactant P20, Biacore AB) was used as the running buffer and assays were performed at 25° C. Anti-IL-1β antibody was passed over flowcells 1 and 2 and captured on the immobilised anti-hFc surface using a flowrate of 10 μl/min. IL-1β from 400-0 nM was injected over the blocked and captured anti-IL-1β antibody surface using a flowrate of 30 μl/min for 3 min. The anti-hFc surface was regenerated with a 30 μl injection of 40 mM HCl. Kinetic parameters were calculated using BIAevaluation 3.1 software.

Binder | Kd
CDR-grafted IC8 antibody gH1gL2 (antibody, V domains shown, Human gamma-4 heavy and kappa light constant regions (pMRR14 and pMRR10), expressed in CHO-L761 cells) VH: EVQLVESGGGLVQPGGSLRLSCAASGFDFSRYDMSWVRQAPGKRLEWVAYISSGGGSTYFPDTVKGRFTISRDNAKNTLYLQMNSLRAEDTAMYYCARQNKKLTWFDYWGQGTLVTVSS VL: DIQMTQSPSSLSASVGDRVTITCRTSGNIHNYLTWYQQKPGKAPQLLVYNAKTLADGVPSRFSGSGSGTQFTLTISSLQPEDFANYYCQHFWSLPFTFGQGTKVEIKR | 0.34 nM
double chimeric IC8 antibody molecule cHcL (antibody, V domains shown, Murine IC8 V-regions on human gamma-4 heavy and human kappa light constant regions (vectors pMRR14 and pMRR10), expressed in CHO-L761 cells) VH: DVQLVESGGGLVKPGGSLKLSCAASGFDFSRYDMSWVRQTPEKRLEWVAYISSGGGSTYFPDTVKGRFTISRDNAKNTLYLQMNNLQSEDTAMFYCARQNKKLTWFDYWGQGTLVTVSS VL: DIQMTQSPASLSASVGETVTITCRTSGNIHNYLTWYQQNLGKSPQLLVYNAKTLADGVPSRFSGSGSGTQFSLTINSLQPEDFGNYYCQHFWSLPFTFGSGTKLEIKR | 0.38 nM
CDR-grafted IC8 antibody gH2gL1 (antibody, V domains shown, Human gamma-4 heavy and kappa light constant regions (pMRR14 and pMRR10), expressed in CHO-L761 cells) VH: EVQLVESGGGLVQPGGSLRLSCAASGFDFSRYDMSWVRQAPGKGLEWVAYISSGGGSTYFPDTVKGRFTISRDNAKNTLYLQMNSLRAEDTAMYYCARQNKKLTWFDYWGQGTLVTVSS VL: DIQMTQSPSSLSASVGDRVTITCRTSGNIHNYLTWYQQKLGKAPQLLVYNAKTLADGVPSRFSGSGSGTQFTLTISSLQPEDFANYYCQHFWSLPFTFGQGTKVEIKR | 1.27 nM
CDR-grafted IC8 antibody gH1gL1 (antibody, V domains shown, Human gamma-4 heavy and kappa light constant regions (pMRR14 and pMRR10), expressed in CHO-L761 cells) VH: EVQLVESGGGLVQPGGSLRLSCAASGFDFSRYDMSWVRQAPGKRLEWVAYISSGGGSTYFPDTVKGRFTISRDNAKNTLYLQMNSLRAEDTAMYYCARQNKKLTWFDYWGQGTLVTVSS VL: DIQMTQSPSSLSASVGDRVTITCRTSGNIHNYLTWYQQKLGKAPQLLVYNAKTLADGVPSRFSGSGSGTQFTLTISSLQPEDFANYYCQHFWSLPFTFGQGTKVEIKR | 0.35 nM
CDR-grafted IC8 antibody gH2gL3 (antibody, V domains shown, Human gamma-4 heavy and kappa light constant regions (pMRR14 and pMRR10), expressed in CHO-L761 cells) VH: EVQLVESGGGLVQPGGSLRLSCAASGFDFSRYDMSWVRQAPGKGLEWVAYISSGGGSTYFPDTVKGRFTISRDNAKNTLYLQMNSLRAEDTAMYYCARQNKKLTWFDYWGQGTLVTVSS VL: DIQMTQSPSSLSASVGDRVTITCRTSGNIHNYLTWYQQKPGKAPQLLIYNAKTLADGVPSRFSGSGSGTQFTLTISSLQPEDFANYYCQHFWSLPFTFGQGTKVEIKR | 1.14 nM and 1.07 nM
CDR-grafted IC8 antibody gH3gL3 (antibody, V domains shown, Human gamma-4 heavy and kappa light constant regions (pMRR14 and pMRR10), expressed in CHO-L761 cells; also called gL3gH3) VH: EVQLVESGGGLVQPGGSLRLSCAASGFDFSRYDMSWVRQAPGKRLEWVAYISSGGGSTYFPDTVKGRFTISRDNAKNTLYLQMNSLRAEDTAVYYCARQNKKLTWFDYWGQGTLVTVSS VL: DIQMTQSPSSLSASVGDRVTITCRTSGNIHNYLTWYQQKPGKAPQLLIYNAKTLADGVPSRFSGSGSGTQFTLTISSLQPEDFANYYCQHFWSLPFTFGQGTKVEIKR | 0.28 nM
CDR-grafted IC8 antibody gH3gL1 (antibody, V domains shown, Human gamma-4 heavy and kappa light constant regions (pMRR14 and pMRR10), expressed in CHO-L761 cells) VH: EVQLVESGGGLVQPGGSLRLSCAASGFDFSRYDMSWVRQAPGKRLEWVAYISSGGGSTYFPDTVKGRFTISRDNAKNTLYLQMNSLRAEDTAVYYCARQNKKLTWFDYWGQGTLVTVSS VL: DIQMTQSPSSLSASVGDRVTITCRTSGNIHNYLTWYQQKLGKAPQLLVYNAKTLADGVPSRFSGSGSGTQFTLTISSLQPEDFANYYCQHFWSLPFTFGQGTKVEIKR | 0.28 nM
CDR-grafted IC8 antibody gH1gL3 (antibody, V domains shown, Human gamma-4 heavy and kappa light constant regions (pMRR14 and pMRR10), expressed in CHO-L761 cells) VH: EVQLVESGGGLVQPGGSLRLSCAASGFDFSRYDMSWVRQAPGKRLEWVAYISSGGGSTYFPDTVKGRFTISRDNAKNTLYLQMNSLRAEDTAMYYCARQNKKLTWFDYWGQGTLVTVSS VL: DIQMTQSPSSLSASVGDRVTITCRTSGNIHNYLTWYQQKPGKAPQLLIYNAKTLADGVPSRFSGSGSGTQFTLTISSLQPEDFANYYCQHFWSLPFTFGQGTKVEIKR | 0.3 nM
CDR-grafted IC8 antibody gH3gL2 (antibody, V domains shown, Human gamma-4 heavy and kappa light constant regions (pMRR14 and pMRR10), expressed in CHO-L761 cells) VH: EVQLVESGGGLVQPGGSLRLSCAASGFDFSRYDMSWVRQAPGKRLEWVAYISSGGGSTYFPDTVKGRFTISRDNAKNTLYLQMNSLRAEDTAVYYCARQNKKLTWFDYWGQGTLVTVSS VL: DIQMTQSPSSLSASVGDRVTITCRTSGNIHNYLTWYQQKPGKAPQLLVYNAKTLADGVPSRFSGSGSGTQFTLTISSLQPEDFANYYCQHFWSLPFTFGQGTKVEIKR | 0.32 nM
